The values below come from publication doi:10.1101/402990 (bioRxiv, 2018).

The target of the assay is T1, 6His-Tea3 (S. pombe, UniProt O14248 1-1125).
T1 sequence (looked up): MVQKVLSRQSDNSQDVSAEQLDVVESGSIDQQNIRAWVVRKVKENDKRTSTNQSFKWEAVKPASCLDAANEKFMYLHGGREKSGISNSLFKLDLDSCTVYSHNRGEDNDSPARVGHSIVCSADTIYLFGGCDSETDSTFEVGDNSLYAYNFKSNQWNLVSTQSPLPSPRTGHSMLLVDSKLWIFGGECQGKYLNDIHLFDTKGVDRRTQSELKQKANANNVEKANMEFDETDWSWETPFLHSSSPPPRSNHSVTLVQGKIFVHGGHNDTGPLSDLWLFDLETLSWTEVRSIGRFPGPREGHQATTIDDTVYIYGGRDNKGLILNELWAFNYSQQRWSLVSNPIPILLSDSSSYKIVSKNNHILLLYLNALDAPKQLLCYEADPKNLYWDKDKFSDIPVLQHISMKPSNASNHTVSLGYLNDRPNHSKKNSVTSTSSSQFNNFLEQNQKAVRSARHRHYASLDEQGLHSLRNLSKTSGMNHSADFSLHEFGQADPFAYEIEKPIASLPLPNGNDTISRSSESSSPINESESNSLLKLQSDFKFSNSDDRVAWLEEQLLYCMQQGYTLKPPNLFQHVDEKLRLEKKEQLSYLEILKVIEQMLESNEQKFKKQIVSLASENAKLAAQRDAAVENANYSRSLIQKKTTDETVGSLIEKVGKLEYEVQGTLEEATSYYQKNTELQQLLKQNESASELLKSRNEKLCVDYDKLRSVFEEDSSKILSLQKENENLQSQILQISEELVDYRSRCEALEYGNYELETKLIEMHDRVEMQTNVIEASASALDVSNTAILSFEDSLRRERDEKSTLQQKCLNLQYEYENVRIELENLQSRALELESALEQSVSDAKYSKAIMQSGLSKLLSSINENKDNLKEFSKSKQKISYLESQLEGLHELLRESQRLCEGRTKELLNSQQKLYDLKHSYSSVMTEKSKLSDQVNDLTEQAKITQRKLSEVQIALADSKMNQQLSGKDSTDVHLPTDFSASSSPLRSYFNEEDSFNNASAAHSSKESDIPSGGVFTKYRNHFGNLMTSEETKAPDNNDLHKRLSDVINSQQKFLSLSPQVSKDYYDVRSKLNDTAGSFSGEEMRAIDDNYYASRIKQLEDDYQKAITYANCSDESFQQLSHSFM
As to the kind of experiment: pull-down.

B1: GST-Shk1 (enzyme, S. pombe, UniProt P50527 1-658, looked up)
chain: MERGTLQPRKKAPNGYGITPIVAHKTGEPVRYEVEDDLRKLKPSRTAPKPPAINTNLAEDTFSGFPLSQSRTTVSRVSLGSRQHSSSSIRKLQTNVSDVRSYDERNQKKSAFENFVSSMSSFLTGGGSSPTSSYGSGSASPRKSTVISSPFDPKHVTHVGFNYDTGEFTGMPTEWQALLKVSGITKSEQVQHPQAVLDAMAFYSQSKKYLEEGAKPPFPRESTEKPLLSVSALSSSSHLQPTSATSSSSRLYPSRPAPTPPASSSSSPLLSSQTVKTTTSNASRQPSPLVSSKSTDNIIRSHSPVLLTPQTLSTSETKHIRPNNSTPYQRRAETSTKPKAVATPQKVEAPSAPRLQKRAPRQQSNDSAVLAKLQSICNPKNPTLLYRNFVKIGQGASGDVYSARQVGTNLSVAIKKMNINQQPKKEFIVNEILVMKSHHHKNIVNFIDTFFYKSELWMVMEYMRGGSLTEVVTNNTLSEGQIAAICKETLEGLQHLHENGIVHRDIKSDNILLSLQGDIKLTDFGFCAQIDSNMTKRTTMVGTPYWMAPEVVTRKEYGFKVDVWSLGIMAIEMVEGEPPYLNENPLRALYLIATIGTPKISRPELLSSVFHDFLSKSLTVNPKQRPSSGELLRHPFLKQAVPVSSLIPLIKSIHHSGK
B1: the binding result is recorded as “binds”.
